Results taken from article PMC6624373, “Lamin A molecular compression and sliding as mechanisms behind nucleoskeleton elasticity” (Nature Communications, 2019).

Target: the molecule itself
Assay: rotary metal shadowing EM; in vitro assembly assay: after dialysis into 25 mM MES, 150 mM NaCl, 1 mM DTT, 1 mM EGTA pH 6.5, 30% glycerol; dimers scored as singular or incorporated into head-to-tail oligomers

Protein	stoichiometry N
lamin A R25G (natural protein, human, UniProt P02545 1-646, looked up, lamin A, human; pre-lamin A without its last 18 amino acids, as m1; mutation associated with EDMD/LGMD1B; source: E. coli (pET28b); purification of the mutants not separately stated) METPSQRRATRSGAQASSTPLSPTGITRLQEKEDLQELNDRLAVYIDRVRSLETENAGLRLRITESEEVVSREVSGIKAAYEAELGDARKTLDSVAKERARLQLELSKVREEFKELKARNTKKEGDLIAAQARLKDLEALLNSKEAALSTALSEKRTLEGELHDLRGQVAKLEAALGEAKKQLQDEMLRRVDAENRLQTMKEELDFQKNIYSEELRETKRRHETRLVEIDNGKQREFESRLADALQELRAQHEDQVEQYKKELEKTYSAKLDNARQSAERNSNLVGAAHEELQQSRIRIDSLSAQLSQLQKQLAAKEAKLRDLEDSLARERDTSRRLLAEKEREMAEMRARMQQQLDEYQELLDIKLALDMEIHAYRKLLEGEEERLRLSPSPTSQRSRGRASSHSSQTQGGGSVTKKRKLESTESRSSFSQHARTSGRVAVEEVDEEGKFVRLRNKSNEDQSMGNWQIKRQNGDDPLLTYRFPPKFTLKAGQVVTIWAAGAGATHSPPTDLVWKAQNTWGCGNSLRTALINSTGEEVAMRKLVRSVTVVEDDEDEDGDDLLHHHHGSHCSSSGDPAEYNLRSRTVLCGTCGQPADKASASGSGAQVGGPISSGSSASSVTVTRSYRSVGGSGGGSFGDNLVTRSY	2
lamin A R401C (natural protein, human, UniProt P02545 1-646, looked up, lamin A, human; pre-lamin A without its last 18 amino acids, as m1; mutation associated with EDMD; source: E. coli (pET28b); purification of the mutants not separately stated) METPSQRRATRSGAQASSTPLSPTRITRLQEKEDLQELNDRLAVYIDRVRSLETENAGLRLRITESEEVVSREVSGIKAAYEAELGDARKTLDSVAKERARLQLELSKVREEFKELKARNTKKEGDLIAAQARLKDLEALLNSKEAALSTALSEKRTLEGELHDLRGQVAKLEAALGEAKKQLQDEMLRRVDAENRLQTMKEELDFQKNIYSEELRETKRRHETRLVEIDNGKQREFESRLADALQELRAQHEDQVEQYKKELEKTYSAKLDNARQSAERNSNLVGAAHEELQQSRIRIDSLSAQLSQLQKQLAAKEAKLRDLEDSLARERDTSRRLLAEKEREMAEMRARMQQQLDEYQELLDIKLALDMEIHAYRKLLEGEEERLRLSPSPTSQRSRGCASSHSSQTQGGGSVTKKRKLESTESRSSFSQHARTSGRVAVEEVDEEGKFVRLRNKSNEDQSMGNWQIKRQNGDDPLLTYRFPPKFTLKAGQVVTIWAAGAGATHSPPTDLVWKAQNTWGCGNSLRTALINSTGEEVAMRKLVRSVTVVEDDEDEDGDDLLHHHHGSHCSSSGDPAEYNLRSRTVLCGTCGQPADKASASGSGAQVGGPISSGSSASSVTVTRSYRSVGGSGGGSFGDNLVTRSY	2
lamin A R401E (natural protein, human, UniProt P02545 1-646, looked up, lamin A, human; pre-lamin A without its last 18 amino acids, as m1; de novo mutant; source: E. coli (pET28b); purification of the mutants not separately stated) METPSQRRATRSGAQASSTPLSPTRITRLQEKEDLQELNDRLAVYIDRVRSLETENAGLRLRITESEEVVSREVSGIKAAYEAELGDARKTLDSVAKERARLQLELSKVREEFKELKARNTKKEGDLIAAQARLKDLEALLNSKEAALSTALSEKRTLEGELHDLRGQVAKLEAALGEAKKQLQDEMLRRVDAENRLQTMKEELDFQKNIYSEELRETKRRHETRLVEIDNGKQREFESRLADALQELRAQHEDQVEQYKKELEKTYSAKLDNARQSAERNSNLVGAAHEELQQSRIRIDSLSAQLSQLQKQLAAKEAKLRDLEDSLARERDTSRRLLAEKEREMAEMRARMQQQLDEYQELLDIKLALDMEIHAYRKLLEGEEERLRLSPSPTSQRSRGEASSHSSQTQGGGSVTKKRKLESTESRSSFSQHARTSGRVAVEEVDEEGKFVRLRNKSNEDQSMGNWQIKRQNGDDPLLTYRFPPKFTLKAGQVVTIWAAGAGATHSPPTDLVWKAQNTWGCGNSLRTALINSTGEEVAMRKLVRSVTVVEDDEDEDGDDLLHHHHGSHCSSSGDPAEYNLRSRTVLCGTCGQPADKASASGSGAQVGGPISSGSSASSVTVTRSYRSVGGSGGGSFGDNLVTRSY	2
lamin A R388C (natural protein, human, UniProt P02545 1-646, looked up, lamin A, human; pre-lamin A without its last 18 amino acids, as m1; mutation associated with CMD; source: E. coli (pET28b); purification of the mutants not separately stated) METPSQRRATRSGAQASSTPLSPTRITRLQEKEDLQELNDRLAVYIDRVRSLETENAGLRLRITESEEVVSREVSGIKAAYEAELGDARKTLDSVAKERARLQLELSKVREEFKELKARNTKKEGDLIAAQARLKDLEALLNSKEAALSTALSEKRTLEGELHDLRGQVAKLEAALGEAKKQLQDEMLRRVDAENRLQTMKEELDFQKNIYSEELRETKRRHETRLVEIDNGKQREFESRLADALQELRAQHEDQVEQYKKELEKTYSAKLDNARQSAERNSNLVGAAHEELQQSRIRIDSLSAQLSQLQKQLAAKEAKLRDLEDSLARERDTSRRLLAEKEREMAEMRARMQQQLDEYQELLDIKLALDMEIHAYRKLLEGEEERLCLSPSPTSQRSRGRASSHSSQTQGGGSVTKKRKLESTESRSSFSQHARTSGRVAVEEVDEEGKFVRLRNKSNEDQSMGNWQIKRQNGDDPLLTYRFPPKFTLKAGQVVTIWAAGAGATHSPPTDLVWKAQNTWGCGNSLRTALINSTGEEVAMRKLVRSVTVVEDDEDEDGDDLLHHHHGSHCSSSGDPAEYNLRSRTVLCGTCGQPADKASASGSGAQVGGPISSGSSASSVTVTRSYRSVGGSGGGSFGDNLVTRSY	2
lamin A E82K (natural protein, human, UniProt P02545 1-646, looked up, lamin A, human; pre-lamin A without its last 18 amino acids, as m1; mutation associated with DCM-CD; source: E. coli (pET28b); purification of the mutants not separately stated) METPSQRRATRSGAQASSTPLSPTRITRLQEKEDLQELNDRLAVYIDRVRSLETENAGLRLRITESEEVVSREVSGIKAAYKAELGDARKTLDSVAKERARLQLELSKVREEFKELKARNTKKEGDLIAAQARLKDLEALLNSKEAALSTALSEKRTLEGELHDLRGQVAKLEAALGEAKKQLQDEMLRRVDAENRLQTMKEELDFQKNIYSEELRETKRRHETRLVEIDNGKQREFESRLADALQELRAQHEDQVEQYKKELEKTYSAKLDNARQSAERNSNLVGAAHEELQQSRIRIDSLSAQLSQLQKQLAAKEAKLRDLEDSLARERDTSRRLLAEKEREMAEMRARMQQQLDEYQELLDIKLALDMEIHAYRKLLEGEEERLRLSPSPTSQRSRGRASSHSSQTQGGGSVTKKRKLESTESRSSFSQHARTSGRVAVEEVDEEGKFVRLRNKSNEDQSMGNWQIKRQNGDDPLLTYRFPPKFTLKAGQVVTIWAAGAGATHSPPTDLVWKAQNTWGCGNSLRTALINSTGEEVAMRKLVRSVTVVEDDEDEDGDDLLHHHHGSHCSSSGDPAEYNLRSRTVLCGTCGQPADKASASGSGAQVGGPISSGSSASSVTVTRSYRSVGGSGGGSFGDNLVTRSY	2
lamin A E33G (natural protein, human, UniProt P02545 1-646, looked up, lamin A, human; pre-lamin A without its last 18 amino acids, as m1; mutation associated with EDMD/LGMD1B; source: E. coli (pET28b); purification of the mutants not separately stated) METPSQRRATRSGAQASSTPLSPTRITRLQEKGDLQELNDRLAVYIDRVRSLETENAGLRLRITESEEVVSREVSGIKAAYEAELGDARKTLDSVAKERARLQLELSKVREEFKELKARNTKKEGDLIAAQARLKDLEALLNSKEAALSTALSEKRTLEGELHDLRGQVAKLEAALGEAKKQLQDEMLRRVDAENRLQTMKEELDFQKNIYSEELRETKRRHETRLVEIDNGKQREFESRLADALQELRAQHEDQVEQYKKELEKTYSAKLDNARQSAERNSNLVGAAHEELQQSRIRIDSLSAQLSQLQKQLAAKEAKLRDLEDSLARERDTSRRLLAEKEREMAEMRARMQQQLDEYQELLDIKLALDMEIHAYRKLLEGEEERLRLSPSPTSQRSRGRASSHSSQTQGGGSVTKKRKLESTESRSSFSQHARTSGRVAVEEVDEEGKFVRLRNKSNEDQSMGNWQIKRQNGDDPLLTYRFPPKFTLKAGQVVTIWAAGAGATHSPPTDLVWKAQNTWGCGNSLRTALINSTGEEVAMRKLVRSVTVVEDDEDEDGDDLLHHHHGSHCSSSGDPAEYNLRSRTVLCGTCGQPADKASASGSGAQVGGPISSGSSASSVTVTRSYRSVGGSGGGSFGDNLVTRSY	2
lamin A R388E (natural protein, human, UniProt P02545 1-646, looked up, lamin A, human; pre-lamin A without its last 18 amino acids, as m1; de novo mutant; source: E. coli (pET28b); purification of the mutants not separately stated) METPSQRRATRSGAQASSTPLSPTRITRLQEKEDLQELNDRLAVYIDRVRSLETENAGLRLRITESEEVVSREVSGIKAAYEAELGDARKTLDSVAKERARLQLELSKVREEFKELKARNTKKEGDLIAAQARLKDLEALLNSKEAALSTALSEKRTLEGELHDLRGQVAKLEAALGEAKKQLQDEMLRRVDAENRLQTMKEELDFQKNIYSEELRETKRRHETRLVEIDNGKQREFESRLADALQELRAQHEDQVEQYKKELEKTYSAKLDNARQSAERNSNLVGAAHEELQQSRIRIDSLSAQLSQLQKQLAAKEAKLRDLEDSLARERDTSRRLLAEKEREMAEMRARMQQQLDEYQELLDIKLALDMEIHAYRKLLEGEEERLELSPSPTSQRSRGRASSHSSQTQGGGSVTKKRKLESTESRSSFSQHARTSGRVAVEEVDEEGKFVRLRNKSNEDQSMGNWQIKRQNGDDPLLTYRFPPKFTLKAGQVVTIWAAGAGATHSPPTDLVWKAQNTWGCGNSLRTALINSTGEEVAMRKLVRSVTVVEDDEDEDGDDLLHHHHGSHCSSSGDPAEYNLRSRTVLCGTCGQPADKASASGSGAQVGGPISSGSSASSVTVTRSYRSVGGSGGGSFGDNLVTRSY	2
lamin A E65G (natural protein, human, UniProt P02545 1-646, looked up, lamin A, human; pre-lamin A without its last 18 amino acids, as m1; mutation associated with EDMD/LGMD1B; source: E. coli (pET28b); purification of the mutants not separately stated) METPSQRRATRSGAQASSTPLSPTRITRLQEKEDLQELNDRLAVYIDRVRSLETENAGLRLRITGSEEVVSREVSGIKAAYEAELGDARKTLDSVAKERARLQLELSKVREEFKELKARNTKKEGDLIAAQARLKDLEALLNSKEAALSTALSEKRTLEGELHDLRGQVAKLEAALGEAKKQLQDEMLRRVDAENRLQTMKEELDFQKNIYSEELRETKRRHETRLVEIDNGKQREFESRLADALQELRAQHEDQVEQYKKELEKTYSAKLDNARQSAERNSNLVGAAHEELQQSRIRIDSLSAQLSQLQKQLAAKEAKLRDLEDSLARERDTSRRLLAEKEREMAEMRARMQQQLDEYQELLDIKLALDMEIHAYRKLLEGEEERLRLSPSPTSQRSRGRASSHSSQTQGGGSVTKKRKLESTESRSSFSQHARTSGRVAVEEVDEEGKFVRLRNKSNEDQSMGNWQIKRQNGDDPLLTYRFPPKFTLKAGQVVTIWAAGAGATHSPPTDLVWKAQNTWGCGNSLRTALINSTGEEVAMRKLVRSVTVVEDDEDEDGDDLLHHHHGSHCSSSGDPAEYNLRSRTVLCGTCGQPADKASASGSGAQVGGPISSGSSASSVTVTRSYRSVGGSGGGSFGDNLVTRSY	2
